Source: the nanobody polyreactivity screen of Harvey et al. (2022)

Test: yeast display, Sf9 membrane polyspecificity reagent, FACS + sequencing; frameworks hold sequencing errors
Procedure, shortened: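 Nanobodies from a synthetic yeast display library (Saccharomyces cerevisiae BJ5465), induced 36–48 hours with galactose, were stained 1 hour at 4 °C with 10% biotinylated, detergent-solubilized Sf9 membrane reagent, enriched on streptavidin microbeads, then FACS-sorted. Anti-HA (expression) and streptavidin (reagent binding) fluorescence set low and high (top ~1%) gates. Polyreactivity labels come from the gate of origin. Genes were colony-PCR amplified, MiSeq 2 × 250 sequenced and filtered by CDR length.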

Sequence | polyreactivity (PSR sort gate)
QVQLVESGGGLVQAGGSLRLSCAASGSIFYTYAMGWYRQAPGKERELVADITTNGGNTYYADSVKGRFTISRDNAKNTVYLQMNSLKPEDTAVYYCARDRYDEPDEGDYDYWGQGTQVTVSS | low polyreactivity
QVQLVESGGGLVQAGGSLRLICAASRGIFGQYVMGWYRQAPGKERELVAPISSGGNTYADSVKGRFTISRDNAKNTVYLHMNSLKPEDTAVYYCAAPLTGIVEYDYWGQGTQVTVSS | low polyreactivity
QVQLVESGGGLVQAGGSLRLSCAASGSIFNWYAMGWYRQAPGKERELVAAISSSGSTNYADSVKGRFTISRDNAKNTVYLQMNSLKPEDTAVYYCNADEYYLNNYNYGYWGQGTQVTVSS | low polyreactivity
QVQLVESGGGLVQAGGSLRLSCAASGRISIWYDMGWYRQAPGKERELVASITSGGSTYADSVKGRFTISRDNAKNTVYLQMNSLKPEDTAVYYCAADEAPYGTSEQRHSRFSHWGQGTQVTVSS | low polyreactivity
QVQLVESGGGLDQAGGSLRLSCAASGYTYLRNAMGWSRQAPGKERELVAAISYSGGGTYYADSVKGRFTISRDNAKNTVYLQMHSLKPEDTAVYYCAADRGGLRWFWQVLYDYWGQGTQVTVSS | low polyreactivity
QVQLVESGGGLVQAGGSLRLSCAASGMIFFNYYAMGWYRQAPGKESELVAAIRYGGGSTYYADSVKGRFTISRDNGKNTVYLQMNSLKPEDTAVYYCAARFKGYYRYGYWGQGTQVTVSS | high polyreactivity
QVQLVESGGGLVQAGGSLRLSCAASGSIVVGYAMGWYRQAPGKERELVAAITGSGTRTYYADSVKGRFTISRDNAKNTVYLQMNSLKPEDTAVYYCAAPLSYKNVKYDYWGQGTQVTVSS | low polyreactivity
QVQLVESGGGLVQAGGSLRLSCAASGITFDYYAMGWYRQAPGKERELVASISSDSSTYYADSVKGRFTISRDNAKNTVYLQMNSLKPEDTAVYYCNAGDTTFPFYYWGQGTQVTVSS | low polyreactivity
QVQLVESGGGLVQAGGSLRLSCAASGSIFRKYAMGWYRQAPGKERELVAVITTDGSTNYADSVKGRFTISRDNAKNTVNLQMNSLKPEDSAVYYCNAVRSSIGTDNDFWGQGTLVTVSS | low polyreactivity
QVQIVESGGGLLQAGGSLRLSCAASGGTFPVYAMVWYRQAPGKERELVAAISYSGVTTYYADSVKGRFTISRDNAKNTVYLQINSLKPDDTAVFYCNADWRRWYIFSYDYWGQGTQVTVSS | low polyreactivity
QVQLVESGGGLVQAGGSLRLSCAASGRIFTTYAMGWYRQAPGKERELVASISWRVGSTYYADSVKGRFTISRDNAKITVYLQMNSLKPEETAVYYCAAVGGNYHASGLRYYWGQGNQVTVSS | low polyreactivity
QVQLVESGGGLVQAGVSLRVSCAASGRTFSRYTMGWYRQAPGKEREMVAAISKRGGSTYYADSVKGRFTISRDNAKNTVYLQRNSLKPEETAVYYCNAYGLVGLVGVIMYYWGQGTQVTVSS | high polyreactivity
QVQLVESGGGLVQAGGSLRLSCAASGLTFTVYGMGWSRQAPGKEREFVATISRRGGRTYYADSVKGRFTISRDNAKNTVYVLLNSLKPEDTAVYYCNADIGTYVRSGGGDYWGQGTQVTVSS | low polyreactivity
QVQLVESGGGLDQAGGSLRLSCAASGRISVFYAMGWYRQAPGKERELVAAISRGSSTYYADSVKGLFTISRDNAKNTVYLQMNSLKPEETAVYYCNRARYYLYDGGYWGQGTQVTVSS | high polyreactivity
QVQLVESGGGLVQAGGSLRLSCAASGRTFCYYAMVWYRRAPGKERELVAAISWSGSRTYYADSVKGRFTISRDNANNSVYLQMTSLKPEDTAVYYCAAGARGLFWEYDYWGQGTQVTVSS | high polyreactivity
QVQLVESGGGLVQAGGSLRLSCAASGFTFWYYAMGWYRQAPGKERELVAAISSGSSTNYADSVKGRFTISRDNPKNTVYLQMNSLKPEDTAVDYCAADKYPSSPYVGDVDYWGQGTQVTVSS | high polyreactivity
QVQLVESGGGLVQAGGSLRLSCAASGVIFGYYAMGWDRQAPGKERELVAAITLSGSRTYYADSVTGRFTISRDTAKNTVDLQMNSLKPEDTAVYYCAKRRYWYYRSRDWFVSGDYWGQGTQVTVSS | low polyreactivity
QVQLVESGGGLVQAGGSLRLSCAASGSIFGGYTMGWYRQAPGKERELVAAISARGGNTYYADSVKGRFTISRDNAKNTVYLQMNSLKPEDTSVYYCAKVRYTQSYRGYGFWGQGTQVTVSS | high polyreactivity
QVQLVESGGGLVQAGGSLRLSCAASGSTIKYYAMGWYRPAPGKERELVAAISKGATRTYYADSVKGRFTISRDHAKNTVYLQMNSLKPEDTAVYFCAADRLKFPCEYDYWGHGTQVTVSS | high polyreactivity
QVQLVESGGGLVQAGGSLRLTCAASGFTFSGYAMGWYRQAPGKERELVAAISSSGASTYYADSVKGRFRISRDNAKYTVYLQMNSLNPEDTAVYYCNTLYYFPYLWPYDYWGQGTQVTVSS | high polyreactivity
QVQLVESGGGLVQAGGSLRLSCAPSGGTFYSYAMGWYRQAPGKESELVAAISRRGASTYYADSVKGRFTISRDNAKNNVYLQMNSLKPEDTAGYYCAAKGRSYGVTRMYYWGQGTQVTVSS | high polyreactivity
QVQLVESGGGLVQAGGSLRLSCAASGSIFYDYTMGWYRQAPGKERELVAAITSDGSTYYADSVKGRFTISRDNAKNTVYLQMKSLKPEDTAVYYCAVFSDVFLYYYGETYDYWGQGTQVTVSS | high polyreactivity

Sequence | polyreactivity (PSR sort gate)
QVQLVESGGGLVQAGGSLRLSCAASGRIFAPYAMGWYRQAPGKERELVAAITSGGSTNYADSVKGRFTISRDNAKNTVYLQMNSLKPEDTAVYYCAAEASYNYGKYVVTYDYWGQGTQVTVSS | high polyreactivity
QVQLVESGGGLVQAGGSLRLSCAASGSIFRRNAMGWYRQAPGKARELVATITSSGGSTYYADSVKGRFTISRDNAKNTVYLQMNSLKPEDTAVYDCATDGQSPYYIYYWGQGTQVTVSS | low polyreactivity
QVQLVESGGGLVQAGGSLRLSCAASGRTFVYYAMGWYSQAPGKERELVAAISSSGGSTSYADSVNGRFTISRDNAKNTVYLQMNSVKPEDTAVYYCAADVSVSGYYYWGQGTQVTVSS | high polyreactivity
QVQLVESGGGLVQAGGSLRLSCAASGRIFPYYAMGWYRQAPGKERELVAAITARGGRTYYADSVKGRFSISRDNAKNTVYLQMNSLKPEETAVYYCNTGGRSGSPGYDYWGQGTQVTVSS | high polyreactivity
QVQLVESGGGLVQAGGSLRLSCAASGSIFKYYAMGWYRQAPGKERELVAAISSNGGRTYYADSVKGRFTISRDNAKNTVYLQMNSLKPEDTAVYYCNVVVKGAWDYYPYDYWGQGTQVTVSS | high polyreactivity
QVQLVESGGRLVQAGGSLRLSCAASGSIFYGYTMGWYRQAPGKERELVATISGRGGSTYYADSVKGRFTISRDNAKTTVYLQMNSLKPEDTAVYYCNSGKYYYNYGFWGQGTQVTVSS | high polyreactivity
QVQLVESGGGLVQAGGSLRLSCAASGRTSVINAMGWYRQAPGKERELVATITWSGASTYYADSVKGRFTISRDNAKNTLYLQMNSLKPEVTAVYYCATDSAQYGYDYWGQGTQVTVSS | low polyreactivity
QVQLVESGGGLVQAGGSLRLSCAASGSIFTSNAMGWYRQAPGKERELVAAISYISGGTYYADSVKGRFTISRDNAKNTVYLQMNSLKPEDTAVYYCAAEQKWGSGQYDQGSYWYYYWGQGTQVTVSS | low polyreactivity
QVQLVESGGGLVQAGGSLRLSCAASGRILYYYAMGWYRQAPGKERELVAAITWGGGSTYYADSVKGRFTISRDNAKKSVYLQMNSLTPEETAVYYCNRTFRSRLPTSRGYEYWGQGTQVTVSS | low polyreactivity
QVQLVESGGGLVQAGGSLRLSCAASGSTFLSNAMGWYRQAPGKERELVAAISVSGARTYYADSVKGRFTISRDNAKNTVYLQMNSLKPEDTAVYYCNAGTSVRYTESSDYWGQATQVTVSS | high polyreactivity
QVQLVESGGGLVQAGGSLRLICAASGRTFSYYAMGWYRQAPGKERELVATIRFSGGGTYYADSVKGRFTISRDNAKNTVYLQMNSLKPEDTAVYYCNADSIDPFLYDYWGQGTQVTVSS | low polyreactivity
QVHLVESGGGLVQAGGSLRLSCAASGSIFASNTMGWYRQAPGKERELVAGITKIGSSTYYADSVKGRFTISRDNAKNTVYLQMNSLKPEDTAVYYCNAYGPNIYSSRYDYWGQGTQVTVSS | low polyreactivity
QVQLVESGGGLVQAGGSLRLSCAASGSIFVPNAMGWYRQAPGKEREFVAAITRSGGRTYYADSVKGRFTISRDNAKNTVYLQMNSLKPEDTAVYYCAAPYGTYAYDYWGQGTQVTVSS | high polyreactivity
QVQLLETGGGLVQAGGSLRLSCAASGSIFSRNDMGWYRPAPGKERELVAAITWSGGSTYYADSVKGRFTISRDNAKNTVYLQMNSLKPEDTAVYYCATRYTRVYDCWGQGTLVTVSS | high polyreactivity
QVQLVESGGGLVQAGGSLRLSCAASGSTFIFYAMGWYRQAPGKERELVAAITSSGGSTYYADSVKGRFTISRDNAKNTVYLQMNSLKPEDTAVYYCNTLAYTYGSKFGYWGQGTQVTVSS | low polyreactivity
QVQLVESGGGLVQAGGSLRLSCAASGSTFDWYAMGWYRQAPGKERELVAAITSGGSTYYADSVKGRFTISRDNAKNTVYLQMNSLKPEDTAVYYCAAESRQVRYILYYYWGQGTQVTVSS | low polyreactivity
QVQIVESGGCLVQAGGSLRLSCAASGRTFWYYTMGWYRQAPGKEREFVAAISYSAGNTYYADSVKGRFTISRDNAKNTVYLQMNSLKPEDTAVNYCAVQRGYRSNAYDYWGQGTQVTVSS | high polyreactivity
QVQLVESGGGLVQAGGSLRLSCAASGRTFAPYAMGWYRQAPGKERELVAAITYSGGSTYYADSVKGRFTISRDNAKNTVYLQMNSLKPEDTAVYYCAKVDSEYRQVIQQEDDYWGQGTQVTVSS | low polyreactivity
QVQLVESGGVLGQAGGSLRLSCAASGFIFSTYTMAWYRPAPGKERDLVAAISRSGGRTYYADSVKGRFTISRDNAKYTVYLQMNSLKPEDTAVYYCNAAKGGRYPDYDYWGQGTQVTVSS | high polyreactivity
QVQHVESRGGLVQAGGSLRLSCAASGSTIGFYAMGWYRQAPGKERELVAGITNGGRTYYADSVKGRFTISRDNAKNTVYLQMISLKPEDTAVYYCIRTPRSKGNYWGQGTQVTVSS | high polyreactivity
QVQLVESGGGLVQAGGSLRLSCAASGSIFSYYVMGWYRQAPGKERELVAVITDRGGRTYYADSVKGRFTISRDNAKNTVYLQMNSLKPEDTAVYYCAADDTPYNSKRFDYWGQGTQVTVSS | high polyreactivity
